Measurements reported in paper PMC9156758, “Cryo-EM structures of human A2ML1 elucidate the protease-inhibitory mechanism of the A2M family” (Nature Communications, 2022).

Assays:
Assay in all cases: cell-based or functional assay
[1] = target: T1, Thermolysin from Geobacillus stearothermophilus (Geobacillus stearothermophilus, UniProt P00800 233-548)
T1 sequence (looked up): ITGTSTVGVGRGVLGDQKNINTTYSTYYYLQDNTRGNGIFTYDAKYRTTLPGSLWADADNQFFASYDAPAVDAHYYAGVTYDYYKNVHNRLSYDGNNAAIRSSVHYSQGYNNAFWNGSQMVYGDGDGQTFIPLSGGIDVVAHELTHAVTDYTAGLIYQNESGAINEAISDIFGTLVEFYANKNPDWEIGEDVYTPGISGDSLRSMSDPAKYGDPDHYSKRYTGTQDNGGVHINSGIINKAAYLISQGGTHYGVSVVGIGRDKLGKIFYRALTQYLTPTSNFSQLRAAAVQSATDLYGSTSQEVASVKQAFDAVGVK

[2] = target: T2, Human neutrophil elastase (HNE) (human, UniProt P08246 30-267)
T2 sequence (looked up): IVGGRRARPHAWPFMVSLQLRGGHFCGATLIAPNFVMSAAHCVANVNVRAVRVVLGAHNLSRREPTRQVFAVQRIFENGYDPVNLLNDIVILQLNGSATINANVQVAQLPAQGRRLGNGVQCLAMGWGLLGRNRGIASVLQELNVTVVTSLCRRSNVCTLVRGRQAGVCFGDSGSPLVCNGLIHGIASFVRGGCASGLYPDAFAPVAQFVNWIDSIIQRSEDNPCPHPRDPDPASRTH

[3] = target: Bovine pancreatic α-chymotrypsin (bovine)

inhibition of thermolysin's β-casein-cleaving activity, A2ML1:thermolysin molar ratios up to 4:1, without BAPN [1]: ~95 % inhibited
inhibition of β-casein-cleaving activity at a 4:1 A2ML1:protease molar ratio [2]: ~10 % inhibited
inhibition of β-casein-cleaving activity at a 4:1 A2ML1:protease molar ratio [3]: ~65 % inhibited
B1: Human alpha-2 macroglobulin-like 1 (A2ML1), recombinant wild type, native (natural protein, UniProt A8K2U0 18-1454, looked up)
chain: EELPNYLVTLPARLNFPSVQKVCLDLSPGYSDVKFTVTLETKDKTQKLLEYSGLKKRHLHCISFLVPPPAGGTEEVATIRVSGVGNNISFEEKKKVLIQRQGNGTFVQTDKPLYTPGQQVYFRIVTMDSNFVPVNDKYSMVELQDPNSNRIAQWLEVVPEQGIVDLSFQLAPEAMLGTYTVAVAEGKTFGTFSVEEYVLPKFKVEVVEPKELSTVQESFLVKICCRYTYGKPMLGAVQVSVCQKANTYWYREVEREQLPDKCRNLSGQTDKTGCFSAPVDMATFDLIGYAYSHQINIVATVVEEGTGVEANATQNIYISPQMGSMTFEDTSNFYHPNFPFSGKIRVRGHDDSFLKNHLVFLVIYGTNGTFNQTLVTDNNGLAPFTLETSGWNGTDVSLEGKFQMEDLVYNPEQVPRYYQNAYLHLRPFYSTTRSFLGIHRLNGPLKCGQPQEVLVDYYIDPADASPDQEISFSYYLIGKGSLVMEGQKHLNSKKKGLKASFSLSLTFTSRLAPDPSLVIYAIFPSGGVVADKIQFSVEMCFDNQVSLGFSPSQQLPGAEVELQLQAAPGSLCALRAVDESVLLLRPDRELSNRSVYGMFPFWYGHYPYQVAEYDQCPVSGPWDFPQPLIDPMPQGHSSQRSIIWRPSFSEGTDLFSFFRDVGLKILSNAKIKKPVDCSHRSPEYSTAMGAGGGHPEAFESSTPLHQAEDSQVRQYFPETWLWDLFPIGNSGKEAVHVTVPDAITEWKAMSFCTSQSRGFGLSPTVGLTAFKPFFVDLTLPYSVVRGESFRLTATIFNYLKDCIRVQTDLAKSHEYQLESWADSQTSSCLCADDAKTHHWNITAVKLGHINFTISTKILDSNEPCGGQKGFVPQKGRSDTLIKPVLVKPEGVLVEKTHSSLLCPKGKVASESVSLELPVDIVPDSTKAYVTVLGDIMGTALQNLDGLVQMPSGCGEQNMVLFAPIIYVLQYLEKAGLLTEEIRSRAVGFLEIGYQKELMYKHSNGSYSAFGERDGNGNTWLTAFVTKCFGQAQKFIFIDPKNIQDALKWMAGNQLPSGCYANVGNLLHTAMKGGVDDEVSLTAYVTAALLEMGKDVDDPMVSQGLRCLKNSATSTTNLYTQALLAYIFSLAGEMDIRNILLKQLDQQAIISGESIYWSQKPTPSSNASPWSEPAAVDVELTAYALLAQLTKPSLTQKEIAKATSIVAWLAKQHNAYGGFSSTQDTVVALQALAKYATTAYMPSEEINLVVKSTENFQRTFNIQSVNRLVFQQDTLPNVPGMYTLEASGQGCVYVQTVLRYNILPPTNMKTFSLSVEIGKARCEQPTSPRSLTLTIHTSYVGSRSSSNMAIVEVKMLSGFSPMEGTNQLLLQQPLVKKVEFGTDTLNIYLDELIKNTQTYTFTISQSVLVTNLKPATIKVYDYYLPDEQATIQYSDPCE
modifications: internal thioester Cys970-Gln973; N-glycans (Asn120, Asn328, Asn857 named)
